Test results taken from the supplement of paper PMC10065799, “High-throughput profiling of sequence recognition by tyrosine kinases and SH2 domains using bacterial peptide display” (eLife, 2023).

Key:
FGFR3 = FGFR3 (UniProt P22607); assay: phosphorylation enrichment, bacterial display (enrichment ratio); higher = better substrate or ligand; peptides without Tyr show the background
c-Abl (mouse) = assay: as above
Fer (mouse) = assay: as above
Jak2 = Jak2 (UniProt O60674); assay: as above
FGFR1 = FGFR1 (UniProt P11362); assay: as above
c-Src = assay: as above
EPHB1 = EPHB1 (UniProt P54762); assay: as above
Hck = Hck (UniProt P08631); assay: as above
Fyn = Fyn (UniProt P06241); assay: as above
AncSZ = assay: as above
EPHB2 = EPHB2 (UniProt P29323); assay: as above
MERTK = MERTK (UniProt Q12866); assay: as above
Fes = Fes (UniProt P07332); assay: as above
SHP2-C SH2 = assay: SH2 binding enrichment of the phosphorylated peptide, bacterial display (enrichment ratio); higher = better substrate or ligand; peptides without Tyr show the background
Grb2 SH2 = Grb2 SH2 (UniProt P62993); assay: as above
c-Src SH2 = assay: as above
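For SH2 binding enrichment of the phosphorylated peptide, bacterial display in this document: peptide library displayed on the E. coli surface as eCPX fusions, selected cells deep-sequenced, score is each peptide's frequency after selection divided by its frequency in the input.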
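For phosphorylation enrichment, bacterial display in this document: 11-residue human phosphosite peptides and single-mutation variants displayed on the E. coli surface, counted by deep sequencing, each peptide's frequency after selection divided by its frequency in the unselected input library; frequency after pTyr selection over input frequency; kinase dosed for 20-30% of maximal phosphorylation in three min.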

FGFR3, sequence (P22607 whole entry, looked up): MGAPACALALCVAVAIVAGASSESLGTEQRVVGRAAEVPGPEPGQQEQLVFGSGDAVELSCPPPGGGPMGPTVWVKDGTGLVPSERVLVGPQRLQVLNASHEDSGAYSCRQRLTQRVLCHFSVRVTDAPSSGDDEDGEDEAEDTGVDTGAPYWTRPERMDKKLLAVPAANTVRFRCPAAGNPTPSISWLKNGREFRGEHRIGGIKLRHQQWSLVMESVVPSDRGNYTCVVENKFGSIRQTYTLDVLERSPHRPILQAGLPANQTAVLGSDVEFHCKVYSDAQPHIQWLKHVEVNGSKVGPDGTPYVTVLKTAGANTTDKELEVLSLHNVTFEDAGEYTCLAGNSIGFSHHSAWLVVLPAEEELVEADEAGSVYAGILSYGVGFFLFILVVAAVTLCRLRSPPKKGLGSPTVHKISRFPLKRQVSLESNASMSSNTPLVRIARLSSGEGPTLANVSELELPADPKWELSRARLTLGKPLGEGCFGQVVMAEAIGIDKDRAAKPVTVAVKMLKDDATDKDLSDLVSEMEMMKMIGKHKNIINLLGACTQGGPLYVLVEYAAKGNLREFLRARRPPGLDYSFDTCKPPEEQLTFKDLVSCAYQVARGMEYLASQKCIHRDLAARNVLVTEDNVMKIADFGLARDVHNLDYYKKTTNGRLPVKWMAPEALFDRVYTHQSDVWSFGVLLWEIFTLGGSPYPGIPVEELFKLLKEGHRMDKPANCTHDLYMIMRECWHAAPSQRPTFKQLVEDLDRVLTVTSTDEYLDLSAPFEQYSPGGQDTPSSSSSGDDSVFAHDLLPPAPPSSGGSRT
Fyn, sequence (P06241 whole entry, looked up): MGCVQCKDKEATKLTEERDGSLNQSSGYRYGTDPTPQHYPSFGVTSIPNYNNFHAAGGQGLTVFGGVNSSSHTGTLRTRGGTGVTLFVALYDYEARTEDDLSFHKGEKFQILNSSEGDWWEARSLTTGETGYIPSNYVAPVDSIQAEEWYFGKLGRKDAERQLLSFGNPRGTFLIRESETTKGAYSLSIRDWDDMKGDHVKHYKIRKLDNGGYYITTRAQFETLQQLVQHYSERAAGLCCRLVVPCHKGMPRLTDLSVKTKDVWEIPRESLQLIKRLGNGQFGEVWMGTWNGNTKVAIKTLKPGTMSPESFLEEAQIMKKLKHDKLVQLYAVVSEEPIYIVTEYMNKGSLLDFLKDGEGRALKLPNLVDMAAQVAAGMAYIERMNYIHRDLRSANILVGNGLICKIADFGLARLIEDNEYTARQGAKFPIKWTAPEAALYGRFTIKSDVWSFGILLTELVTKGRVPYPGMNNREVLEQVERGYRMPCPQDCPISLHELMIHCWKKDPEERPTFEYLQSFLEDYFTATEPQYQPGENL
Grb2 SH2, sequence (P62993 whole entry, looked up): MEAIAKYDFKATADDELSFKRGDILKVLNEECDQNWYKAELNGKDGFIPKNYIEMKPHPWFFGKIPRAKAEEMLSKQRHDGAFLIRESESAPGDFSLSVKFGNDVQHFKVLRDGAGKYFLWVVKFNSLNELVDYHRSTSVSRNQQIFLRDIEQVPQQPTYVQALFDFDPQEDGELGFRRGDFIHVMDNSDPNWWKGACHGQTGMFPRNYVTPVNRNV
FGFR1, sequence (P11362 whole entry, looked up): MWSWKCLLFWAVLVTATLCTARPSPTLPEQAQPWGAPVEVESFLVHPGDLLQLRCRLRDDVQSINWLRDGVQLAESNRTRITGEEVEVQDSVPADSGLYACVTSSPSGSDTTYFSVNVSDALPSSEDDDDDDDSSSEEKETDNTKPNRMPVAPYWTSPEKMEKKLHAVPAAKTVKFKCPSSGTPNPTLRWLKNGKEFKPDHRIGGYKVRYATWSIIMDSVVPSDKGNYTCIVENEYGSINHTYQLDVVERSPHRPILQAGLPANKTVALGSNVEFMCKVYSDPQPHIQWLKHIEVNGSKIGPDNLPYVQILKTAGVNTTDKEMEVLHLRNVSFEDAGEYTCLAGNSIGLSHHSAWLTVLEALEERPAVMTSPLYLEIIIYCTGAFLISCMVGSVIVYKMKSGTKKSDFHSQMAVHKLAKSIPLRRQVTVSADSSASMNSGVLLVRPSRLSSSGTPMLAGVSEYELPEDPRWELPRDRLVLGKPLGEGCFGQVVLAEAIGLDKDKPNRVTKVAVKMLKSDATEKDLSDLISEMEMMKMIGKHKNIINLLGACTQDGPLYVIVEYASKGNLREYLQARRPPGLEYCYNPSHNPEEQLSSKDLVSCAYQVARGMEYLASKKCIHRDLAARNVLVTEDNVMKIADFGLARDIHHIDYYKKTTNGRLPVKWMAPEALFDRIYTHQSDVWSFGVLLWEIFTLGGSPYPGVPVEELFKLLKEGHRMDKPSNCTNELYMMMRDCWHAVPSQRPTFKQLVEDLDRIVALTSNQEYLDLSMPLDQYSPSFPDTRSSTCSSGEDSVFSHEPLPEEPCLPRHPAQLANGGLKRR
EPHB2, sequence (P29323 whole entry, looked up): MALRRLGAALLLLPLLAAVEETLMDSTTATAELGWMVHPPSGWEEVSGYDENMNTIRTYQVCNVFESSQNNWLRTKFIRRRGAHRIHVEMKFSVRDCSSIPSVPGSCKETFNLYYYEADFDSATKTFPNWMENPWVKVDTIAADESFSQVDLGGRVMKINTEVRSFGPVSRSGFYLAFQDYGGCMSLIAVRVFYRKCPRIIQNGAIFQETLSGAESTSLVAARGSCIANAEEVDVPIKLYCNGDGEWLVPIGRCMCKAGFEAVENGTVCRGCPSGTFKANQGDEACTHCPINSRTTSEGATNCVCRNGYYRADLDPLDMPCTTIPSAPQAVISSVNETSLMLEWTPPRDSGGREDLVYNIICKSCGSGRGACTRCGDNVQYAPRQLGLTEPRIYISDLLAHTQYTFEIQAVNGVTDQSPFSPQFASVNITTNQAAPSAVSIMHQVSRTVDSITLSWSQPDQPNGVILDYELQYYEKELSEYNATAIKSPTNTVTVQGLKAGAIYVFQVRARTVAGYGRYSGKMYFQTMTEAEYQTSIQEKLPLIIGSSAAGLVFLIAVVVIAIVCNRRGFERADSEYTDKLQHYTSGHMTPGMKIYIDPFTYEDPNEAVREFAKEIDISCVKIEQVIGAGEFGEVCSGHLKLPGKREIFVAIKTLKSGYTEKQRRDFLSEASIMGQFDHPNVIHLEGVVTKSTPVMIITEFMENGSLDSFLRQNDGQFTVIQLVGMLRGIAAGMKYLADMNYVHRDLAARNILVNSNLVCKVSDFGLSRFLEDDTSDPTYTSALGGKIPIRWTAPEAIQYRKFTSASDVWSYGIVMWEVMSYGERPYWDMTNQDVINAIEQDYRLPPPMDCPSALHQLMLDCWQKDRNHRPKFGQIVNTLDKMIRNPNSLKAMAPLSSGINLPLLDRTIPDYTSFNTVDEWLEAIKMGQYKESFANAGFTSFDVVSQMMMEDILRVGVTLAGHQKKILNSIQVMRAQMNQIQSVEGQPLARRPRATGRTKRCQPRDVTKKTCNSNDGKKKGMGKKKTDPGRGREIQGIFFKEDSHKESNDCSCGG
Jak2, sequence (O60674 whole entry, looked up): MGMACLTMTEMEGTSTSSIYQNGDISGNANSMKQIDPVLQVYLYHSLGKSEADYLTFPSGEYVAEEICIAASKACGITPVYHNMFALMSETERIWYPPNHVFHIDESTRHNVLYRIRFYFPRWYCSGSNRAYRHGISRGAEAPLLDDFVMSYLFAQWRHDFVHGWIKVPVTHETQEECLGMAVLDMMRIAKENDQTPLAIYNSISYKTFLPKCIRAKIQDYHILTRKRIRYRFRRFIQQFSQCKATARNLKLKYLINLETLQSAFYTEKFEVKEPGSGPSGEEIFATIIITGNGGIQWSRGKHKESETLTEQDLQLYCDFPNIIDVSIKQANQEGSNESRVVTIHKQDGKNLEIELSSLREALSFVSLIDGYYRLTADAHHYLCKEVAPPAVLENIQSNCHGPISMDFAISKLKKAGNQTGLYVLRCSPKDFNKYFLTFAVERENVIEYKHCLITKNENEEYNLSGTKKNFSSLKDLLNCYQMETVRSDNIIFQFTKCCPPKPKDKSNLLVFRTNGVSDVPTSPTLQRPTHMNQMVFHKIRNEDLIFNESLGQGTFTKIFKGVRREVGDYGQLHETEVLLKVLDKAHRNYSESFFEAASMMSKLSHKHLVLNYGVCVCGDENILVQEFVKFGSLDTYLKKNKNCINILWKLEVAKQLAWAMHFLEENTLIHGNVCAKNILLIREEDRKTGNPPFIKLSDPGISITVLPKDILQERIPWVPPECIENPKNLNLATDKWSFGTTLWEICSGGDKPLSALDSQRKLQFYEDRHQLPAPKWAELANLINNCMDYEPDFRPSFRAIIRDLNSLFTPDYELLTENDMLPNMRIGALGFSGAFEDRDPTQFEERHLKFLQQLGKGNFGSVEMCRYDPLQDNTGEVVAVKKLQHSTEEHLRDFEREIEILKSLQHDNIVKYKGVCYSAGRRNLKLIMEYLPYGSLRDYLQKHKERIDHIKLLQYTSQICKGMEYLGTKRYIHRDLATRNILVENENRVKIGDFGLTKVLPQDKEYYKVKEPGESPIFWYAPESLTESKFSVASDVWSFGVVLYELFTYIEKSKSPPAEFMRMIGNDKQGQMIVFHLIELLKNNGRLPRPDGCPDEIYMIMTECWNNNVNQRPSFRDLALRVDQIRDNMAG

Row | Sequence | phosphorylation enrichment (FGFR3) | phosphorylation enrichment (c-Abl (mouse)) | phosphorylation enrichment (Fer (mouse)) | phosphorylation enrichment (Jak2) | phosphorylation enrichment (FGFR1) | phosphorylation enrichment (c-Src) | phosphorylation enrichment (EPHB1) | phosphorylation enrichment (Hck) | phosphorylation enrichment (Fyn) | phosphorylation enrichment (AncSZ) | phosphorylation enrichment (EPHB2) | phosphorylation enrichment (MERTK) | phosphorylation enrichment (Fes) | SH2 binding enrichment (SHP2-C SH2) | SH2 binding enrichment (Grb2 SH2) | SH2 binding enrichment (c-Src SH2)
1 | DKMEAYNINET [TEKT4_Y210_D213N] | 0.663 | 0.808 | 0.489 | 1.13 | 0.481 | 0.577 | 0.488 | 0.535 | 0.505 | 1.09 | 0.535 | 0.492 | 1.27 | 0.665 | 0.951 | 0.444
2 | DLAHKYHGGGG [HBB_Y146_A141D] | 0.388 | 0.394 | 0.32 | 0.545 | 0.43 | 0.388 | 0.333 | 0.348 | 0.373 | 0.441 | 0.392 | 0.452 | 0.473 | 0.54 | 0.722 | 0.42
3 | DLDLTSIYPNI [PTEN_Y27_Y27S] | 0.78 | 0.837 | 0.425 | 0.903 | 0.468 | 0.53 | 0.498 | 0.478 | 0.506 | 0.871 | 0.582 | 0.516 | 0.955 | 0.614 | 0.808 | 0.949
4 | DMQTLYVNTAA [SMCHD1_Y403] | 0.478 | 0.734 | 0.482 | 0.518 | 0.471 | 0.418 | 0.428 | 0.578 | 0.485 | 0.647 | 0.64 | 0.513 | 0.588 | 0.643 | 4.57 | 0.635
5 | DNEAIYDICRC [TUBA4A_Y210_R215C] | 0.761 | 10.3 | 7.98 | 0.923 | 0.633 | 6.51 | 1.82 | 7.18 | 9.3 | 3.65 | 4.87 | 5.93 | 1.28 | 0.662 | 0.932 | 0.524
6 | DNEYAYLKAII [HNF4A_Y288] | 2.4 | 2.79 | 0.667 | 0.856 | 3.79 | 0.599 | 1.68 | 1.58 | 0.615 | 1.27 | 0.97 | 0.603 | 1.01 | 0.513 | 0.732 | 0.391
7 | DPEATYTTSGS [EPHA2_Y772_G777S] | 0.596 | 0.617 | 0.48 | 0.694 | 0.425 | 0.633 | 0.476 | 0.598 | 0.518 | 0.889 | 0.518 | 0.34 | 0.981 | 0.731 | 0.873 | 0.571
8 | DPGVSYHTREE [PDHA1_Y301_R302H] | 0.548 | 0.399 | 0.383 | 0.465 | 0.452 | 0.41 | 0.351 | 0.551 | 0.483 | 0.677 | 0.429 | 0.405 | 0.764 | 0.713 | 0.65 | 0.359
9 | DPHKIFEFVNS [IRF3_Y107_Y107F] | 0.596 | 0.431 | 0.771 | 0.615 | 0.643 | 0.417 | 0.54 | 0.607 | 0.606 | 0.791 | 0.539 | 0.412 | 0.88 | 0.703 | 0.662 | 0.425
10 | DPTFGYEDFTR [SESN2_Y323] | 0.699 | 0.733 | 0.445 | 1.03 | 0.481 | 0.694 | 0.525 | 0.595 | 0.461 | 1.08 | 0.577 | 0.545 | 1.28 | 0.771 | 0.821 | 5.25
11 | DQLVKYGVNPG [TMPO_Y127] | 0.49 | 0.475 | 0.356 | 0.479 | 0.292 | 0.294 | 0.467 | 0.363 | 0.369 | 0.553 | 0.325 | 0.314 | 0.605 | 0.498 | 0.888 | 0.539
12 | DRLANYLEKVR [KRT40_Y103_S102N] | 0.64 | 0.469 | 0.373 | 0.587 | 0.382 | 0.395 | 0.337 | 0.38 | 0.399 | 0.651 | 0.424 | 0.41 | 0.74 | 0.731 | 0.764 | 0.339
13 | DRLASYLEKVR [KRT13_Y118] | 0.384 | 0.451 | 0.424 | 0.616 | 0.393 | 0.412 | 0.372 | 0.375 | 0.366 | 0.736 | 0.399 | 0.424 | 0.677 | 0.676 | 0.93 | 0.423
14 | DRSSLYLVAGP [KIAA1614_Y1083_N1078D] | 0.665 | 0.652 | 0.615 | 1.08 | 0.593 | 0.749 | 0.709 | 0.842 | 0.523 | 1.25 | 0.833 | 1.33 | 1.13 | 0.685 | 0.781 | 0.519
15 | DSGKLYALDVL [INO80_Y1104] | 0.721 | 0.643 | 0.676 | 0.731 | 0.525 | 1.02 | 0.711 | 0.58 | 0.752 | 0.921 | 0.705 | 3.17 | 0.93 | 0.729 | 0.744 | 0.668
16 | DSSIRYLQEIF [FGG_Y135_YF] | 0.604 | 0.545 | 0.417 | 0.755 | 0.632 | 0.497 | 0.576 | 0.527 | 0.559 | 0.868 | 0.5 | 0.542 | 0.924 | 0.693 | 0.856 | 0.473
17 | DSSIRYLQEIY [FGG_Y135] | 0.655 | 0.567 | 0.549 | 0.733 | 0.59 | 1.14 | 0.587 | 0.948 | 0.776 | 0.893 | 0.585 | 0.438 | 1.02 | 0.629 | 0.935 | 0.526
18 | DTSKMYIPHTD [EXPH5_Y782] | 0.577 | 0.549 | 0.436 | 0.606 | 0.445 | 0.371 | 0.487 | 0.427 | 0.372 | 0.624 | 0.405 | 0.399 | 0.786 | 0.512 | 0.679 | 0.417
19 | DWQQEYVLNES [TGM1_Y267_R264Q] | 0.996 | 0.788 | 0.434 | 0.957 | 1.11 | 2.73 | 1.42 | 0.6 | 0.648 | 2.03 | 0.615 | 0.427 | 1.45 | 0.681 | 0.766 | 0.506
20 | DWRQEYVLNEP [TGM1_Y267_S272P] | 1.24 | 0.669 | 0.55 | 0.988 | 1.7 | 1.89 | 0.407 | 0.397 | 0.672 | 1.24 | 0.426 | 0.495 | 1.13 | 0.75 | 0.877 | 0.523
21 | DWRQEYVLNES [TGM1_Y267] | 0.909 | 0.677 | 0.558 | 0.863 | 0.878 | 1.36 | 0.55 | 0.686 | 0.593 | 1.23 | 0.817 | 0.53 | 1.15 | 0.702 | 0.856 | 0.449
22 | DYSLKYPTDIP [APC_Y1183_A1184P] | 0.866 | 0.52 | 0.476 | 0.852 | 0.691 | 0.442 | 0.618 | 0.503 | 0.534 | 0.867 | 0.478 | 0.549 | 0.844 | 0.666 | 0.765 | 0.438
23 | EAESWYQTKYE [KRT75_Y342] | 0.752 | 0.686 | 0.505 | 1.07 | 0.491 | 0.62 | 0.641 | 0.545 | 0.546 | 1.15 | 0.655 | 0.505 | 1.21 | 0.437 | 0.858 | 0.547
24 | EAVSIYQFYGQ [CBLC_Y402_H405Y] | 1.77 | 4.8 | 9.22 | 1.22 | 1.6 | 7.02 | 10.1 | 7.5 | 9.16 | 2.11 | 11.6 | 9.05 | 1.38 | 0.857 | 0.821 | 0.574
25 | ECIEFYELDKK [PMM2_Y145_R141C] | 0.776 | 0.825 | 0.589 | 0.977 | 0.569 | 0.999 | 0.579 | 0.572 | 0.501 | 1.22 | 0.596 | 0.485 | 1.13 | 0.662 | 1.11 | 0.805
26 | EDASEYYENYI [PARP4_Y214_F215Y] | 1.6 | 0.716 | 0.995 | 1.02 | 1.66 | 1.02 | 0.782 | 0.666 | 0.738 | 1.93 | 0.761 | 0.467 | 1.3 | 0.589 | 0.857 | 0.582
27 | EDSEYYRAFEE [CASQ2_Y179_K180R] | 1.26 | 0.915 | 0.518 | 1.37 | 0.937 | 0.754 | 0.823 | 0.675 | 0.765 | 2.96 | 0.724 | 0.497 | 1.6 | 0.559 | 0.939 | 0.411
28 | EEGENYQKGEQ [CHGB_Y173_R178Q] | 0.747 | 0.898 | 0.51 | 1.4 | 0.637 | 0.545 | 0.592 | 0.519 | 0.519 | 1.28 | 0.63 | 0.561 | 1.28 | 0.473 | 0.876 | 0.472
29 | EEQKKYFNATK [SCN5A_Y1494_M1498T_YF] | 0.582 | 0.459 | 0.366 | 0.6 | 0.49 | 0.377 | 0.356 | 0.379 | 0.34 | 0.607 | 0.479 | 0.269 | 0.729 | 0.516 | 0.766 | 0.581
